Residue numbers refer to the chain shown, from its start. Numbers in names are those of the source.
B1: T026301064 (VHH, name in Kabat numbering)
VHH: EVQLVESGGGVVQPGGSLRLSCAASGFTFSSYDMYWVRQAPGKGLEWVSAISQGGGSTDYADSVKGRFTISRDNSKNTLYLQMNSLRPEDTALYYCAADTLYTSLTWYSYWGQGTLVTVSS
notes: tagless
B2: T026301111 (VHH, name in Kabat numbering)
VHH: B1 VHH with S31E, D33A
notes: tagless
B3: T026301079 (VHH, name in Kabat numbering)
VHH: B1 VHH with D33A, W107S
notes: tagless
B4: T026301075 (VHH, name in Kabat numbering)
VHH: B1 VHH with G26T, S31E, D33A, Q53S
notes: tagless
B5: T026301257 (bispecific antibody, not shown: small tags and cut ends)
chain: EVQLVESGGGVVQPGGSLRLSCAASGFTFSSYAMYWVRQAPGKGLEWVSAISSGGGSTDYADSVKGRFTISRDNSKNTLYLQMNSLRPEDTALYYCAADTLYTSLTWYSYWGQGTLVTVSSGGGGSGGGGSGGGGSGGGGSGGGGSGGGGSGGGGSEVQLVESGGGVVQPGGSLRLSCAASGFTFRSFGMSWVRQAPGKGPEWVSSISGSGSDTLYADSVKGRFTISRDNSKNTLYLQMNSLRPEDTALYYCTIGGSLSRSSQGTLVTVSSA
notes: tetravalent ISVD construct; also called X-Y-FcRn-35GS-ALB23002
B6: T026301366 (bispecific antibody, not shown: small tags and cut ends)
chain: B5 chain with W107S
notes: tetravalent ISVD construct; also called X-Y-FcRn(W100cS)-35GS-ALB23002
B7: T026301259 (bispecific antibody, not shown: small tags and cut ends)
chain: EVQLVESGGGVVQPGGSLRLSCAASGFTFSSYAMYWVRQAPGKGLEWVSAISSGGGSTDYADSVKGRFTISRDNSKNTLYLQMNSLRPEDTALYYCAADTLYTSLTWYSYWGQGTLVTVSSGGGGSGGGSEVQLVESGGGVVQPGGSLRLSCAASGFTFRSFGMSWVRQAPGKGPEWVSSISGSGSDTLYADSVKGRFTISRDNSKNTLYLQMNSLRPEDTALYYCTIGGSLSRSSQGTLVTVSSA
notes: tetravalent ISVD construct; also called X-Y-FcRn-ALB23002
B8: T026301266 (other)
VHH 1: B1 VHH with D33A, Q53S
VHH 2: EVQLVESGGGVVQPGGSLRLSCAASGFTFRSFGMSWVRQAPGKGPEWVSSISGSGSDTLYADSVKGRFTISRDNSKNTLYLQMNSLRPEDTALYYCTIGGSLSRSSQGTLVTVSSA
notes: tetravalent ISVD construct; also called X-FcRn-Y-ALB23002
B9: T026301195 (bispecific antibody, name in Kabat numbering)
chain: B5 chain with E1D, S31E, A33D, W107S
notes: bispecific ISVD construct; also called T0263018B11(E1D, S31E, A33D, W100cS)-35GS-ALB23002-A
B10: T026301170 (bispecific antibody)
chain: B5 chain with E1D
notes: bispecific ISVD construct; also called T0263018B11(E1D)-35GS-ALB23002-A
B11: T026301192 (bispecific antibody, name in Kabat numbering)
chain: B5 chain with E1D, S104E
notes: bispecific ISVD construct; also called T0263018B11(E1D, S100E)-35GS-ALB23002-A
B12: T026301196 (bispecific antibody, name in Kabat numbering)
chain: B5 chain with E1D, G26T, S53Q, W107S
notes: bispecific ISVD construct; also called T0263018B11(E1D, G26T, S52aQ, W100cS)-35GS-ALB23002-A
B13: T026301198 (bispecific antibody, name in Kabat numbering)
chain: B5 chain with E1D, W107S
notes: bispecific ISVD construct; also called T0263018B11(E1D, W100cS)-35GS-ALB23002-A
B14: T026301197 (bispecific antibody, name in Kabat numbering)
chain: B5 chain with E1D, S53Q
notes: bispecific ISVD construct; also called T0263018B11(E1D, S52aQ)-35GS-ALB23002-A
B15: T026301230 (other, name in Kabat numbering, not shown: small tags and cut ends)
chain: B1 VHH with E1D, D33A, Q53S, W107S
notes: pentavalent ISVD construct
B16: T026301233 (other, name in Kabat numbering, not shown: small tags and cut ends)
chain: B1 VHH with E1D, G26T, D33A, W107S
notes: pentavalent ISVD construct
B17: T026301234 (other, not shown: small tags and cut ends)
chain: B1 VHH with E1D, D33A, Q53S
notes: pentavalent ISVD construct

Target: T1, human FcRn/b2M (human, UniProt P61769 21-119, biotinylated)
T1 construct: bought recombinant biotinylated protein (ACRO FCM-H82W4 or Immunitrack ITF01); also called hFcRn; hFcRn/hb2M
Assay: SPR pH 6.0

Kd	Binder
9.4 nM	B1
77 nM	B2
120 nM	B3

Target: T2, cyno FcRn/b2M (cyno, UniProt Q8SPV9 24-297; Q8SPW0 21-119, biotinylated)
T2 construct: bought recombinant biotinylated protein (Immunitrack ITF05 or ACRO FCM-C82W5); also called cFcRn; cFcRn/cb2M
Assay: SPR pH 6.0

T2 sequence (Q8SPV9 24-297 limits assumed, chain 1 of 2): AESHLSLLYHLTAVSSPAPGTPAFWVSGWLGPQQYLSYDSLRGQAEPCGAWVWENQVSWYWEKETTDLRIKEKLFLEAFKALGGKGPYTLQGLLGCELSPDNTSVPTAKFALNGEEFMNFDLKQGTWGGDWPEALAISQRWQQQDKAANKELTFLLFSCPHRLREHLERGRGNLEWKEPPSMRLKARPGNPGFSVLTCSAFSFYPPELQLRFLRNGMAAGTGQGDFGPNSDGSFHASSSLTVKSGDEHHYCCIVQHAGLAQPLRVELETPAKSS
T2 sequence (Q8SPW0 21-119 limits assumed, chain 2 of 2): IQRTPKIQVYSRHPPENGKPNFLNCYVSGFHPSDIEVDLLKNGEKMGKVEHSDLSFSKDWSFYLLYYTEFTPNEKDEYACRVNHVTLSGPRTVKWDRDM

Kd	Binder
3.8 nM	B1
48 nM	B2
76 nM	B3
21 nM	B4

Target: T3, human serum albumin (human, UniProt P02768 25-609)
T3 construct: also called HSA
Assay: SPR pH 6.0
Procedure: (§1) The affinity of the purified, multivalent ISVD constructs for human and mouse serum albumin (HSA and MSA, respectively) was determined on the ProteOn XPR36 (BioRad Laboratories, Inc.) instrument. […] The ISVD constructs were injected at 6 different concentrations (between 1 and 500 nM) and allowed to associate for 120 s at 45 μL/min and dissociate for 600s-3600s at 45 μL/min. Evaluation of the sensorgrams was based on the 1:1 Langmuir dissociation model simultaneously fitting on and off-rates.

Kd	Binder
14 nM	B5
10 nM	B6
9.8 nM	B7
12 nM	B8

Target: T4, mouse serum albumin (mouse, UniProt P07724 25-608)
T4 construct: also called MSA
Assay: SPR pH 6.0
Procedure: as §1

T4 sequence (P07724 25-608 limits assumed): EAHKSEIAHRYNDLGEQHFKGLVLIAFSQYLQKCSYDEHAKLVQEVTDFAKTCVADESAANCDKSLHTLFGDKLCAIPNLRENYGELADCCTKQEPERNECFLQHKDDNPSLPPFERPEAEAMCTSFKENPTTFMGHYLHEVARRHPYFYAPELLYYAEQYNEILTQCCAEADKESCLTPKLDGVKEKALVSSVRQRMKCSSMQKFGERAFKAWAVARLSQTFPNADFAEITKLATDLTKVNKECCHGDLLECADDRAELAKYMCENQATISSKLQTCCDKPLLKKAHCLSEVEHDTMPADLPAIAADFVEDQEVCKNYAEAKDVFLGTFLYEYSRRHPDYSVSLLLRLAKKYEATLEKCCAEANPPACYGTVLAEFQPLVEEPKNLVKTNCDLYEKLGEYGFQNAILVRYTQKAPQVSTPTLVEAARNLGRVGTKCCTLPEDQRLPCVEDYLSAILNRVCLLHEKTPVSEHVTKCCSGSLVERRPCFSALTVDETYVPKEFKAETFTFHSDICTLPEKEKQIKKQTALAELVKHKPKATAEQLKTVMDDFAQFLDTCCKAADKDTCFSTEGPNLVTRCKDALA

koff	Binder
0.056 s⁻¹	B5
0.038 s⁻¹	B7
0.053 s⁻¹	B8

Target: T1, human FcRn/b2M
Assay: SPR pH 6.0; pH 6.0; human FcRn
Procedure: (§2) The affinity of the purified, multivalent ISVD constructs for human and cyno FcRn was determined on the MASS-2 (Sierra sensors, Gmbh) instrument, hFcRn/hb2M and cFcRn/cb2M was captured on a Biotin-tag Capture Chip or a High Capacity Amine Chip (pre-immobilized with neutravidin). The ISVD constructs were injected at 6 different concentrations (between 1 and 4000 nM) and allowed to associate for 120 s at 45 μL/min and dissociate for 600 s-3600 s at 45 μL/min. […] Evaluation of the sensorgrams was based on the 1:1 Langmuir dissociation model simultaneously fitting on and off-rates.

Kd	Binder
680 nM	B9

Target: T3, human serum albumin
Assay: SPR pH 7.4
Procedure: as §1

Kd	Binder
13 nM	B10
12 nM	B11
15 nM	B12
15 nM	B13
13 nM	B9
11 nM	B14

Target: T4, mouse serum albumin
Assay: SPR pH 7.4
Procedure: as §1

Kd	Binder
85 nM	B10
87 nM	B11
120 nM	B12
120 nM	B13
120 nM	B9
69 nM	B14

Target: T3, human serum albumin
Assay: SPR pH 7.4
Remark: another data set of the same source
Procedure: as §1

Kd	Binder
11 nM	B5
7.5 nM	B6
7.32 nM	B7
8.6 nM	B8

Target: T4, mouse serum albumin
Assay: SPR pH 7.4
Remark: another data set of the same source
Procedure: as §1

koff	Binder
0.052 s⁻¹	B5
0.037 s⁻¹	B7
0.048 s⁻¹	B8

Target: T1, human FcRn/b2M
Assay: SPR pH 6.0
Remark: another data set of the same source
Procedure: as §2

Kd	Binder
34 nM	B5
25 nM	B7
41 nM	B8

Target: T2, cyno FcRn/b2M
Assay: SPR pH 6.0
Remark: another data set of the same source
Procedure: as §2

Kd	Binder
20 nM	B5
180 nM	B6
15 nM	B7
26 nM	B8

Target: T1, human FcRn/b2M
Assay: SPR pH 6.0
Remark: another data set of the same source
Procedure: (§3) The affinities of the monovalent purified, tagless ISVDs were determined for human FcRn on ProteOn XPR36 (BioRad Laboratories, Inc.), the MASS-2 (Sierra sensors, Gmbh) or SPR-32 (Bruker Corporation) instrument. In the same way, the affinities of bivalent ISVD constructs comprising two of the same monovalent building blocks of purified, tagless ISVDs were determined for human FcRn on ProteOn XPR36 (BioRad Laboratories, Inc.), the MASS-2 (Sierra sensors, Gmbh) or SPR-32 (Bruker Corporation) instrument. For affinity measurements, ˜1000-3000RU (hFcRn/hb2M; ACRO Biosystems FCM-H82W4) was captured on a ProteOn NLC sensor (ProteOn) or Biotin-tag Capture Chip or a High Capacity Amine Chip (pre-immobilized with neutravidin; MASS-2). The ISVDs were injected at 6 different concentrations (between 1 and 4000 nM) and allowed to associate for 120s at 45 μL/min and dissociate for 600s-3600s at 45 μL/min. […] Evaluation of the sensorgrams was based on the 1:1 Langmuir dissociation model simultaneously fitting on and off-rates.

Kd	Binder
100 nM	B15
490 nM	B16
26 nM	B17

Target: T2, cyno FcRn/b2M
Assay: SPR pH 6.0
Remark: another data set of the same source
Procedure: as §3

Kd	Binder
54 nM	B15
270 nM	B16
14 nM	B17

Target: T1, human FcRn/b2M
Assay: SPR pH 7.4

Kd	Binder
3700 nM	B1
5400 nM	B2
5600 nM	B4

Target: T2, cyno FcRn/b2M
Assay: SPR pH 7.4

Kd	Binder
2400 nM	B1
5000 nM	B2
5900 nM	B3
3100 nM	B4

Target: T3, human serum albumin
Assay: SPR pH 6.0
Remark: another data set of the same source
Procedure: as §1

Kd	Binder
6.1 nM	B10
5.7 nM	B11
7.4 nM	B12
7.3 nM	B13
6.1 nM	B9
5.1 nM	B14

Target: T4, mouse serum albumin
Assay: SPR pH 6.0
Remark: another data set of the same source
Procedure: as §1

Kd	Binder
67 nM	B10
64 nM	B11
89 nM	B12
89 nM	B13
77 nM	B9
57 nM	B14

Target: T1, human FcRn/b2M
Assay: SPR pH 7.4
Remark: another data set of the same source
Procedure: as §3

Kd	Binder
670 nM	B15
750 nM	B16
740 nM	B17

Target: T2, cyno FcRn/b2M
Assay: SPR pH 7.4
Remark: another data set of the same source
Procedure: as §3

Kd	Binder
580 nM	B15
420 nM	B16
490 nM	B17

Target: T1, human FcRn/b2M
Assay: SPR pH 6.0
Remark: another data set of the same source
Procedure: as §2

Kd	Binder
12 nM	B10
250 nM	B11
1000 nM	B12
71 nM	B14

Target: T2, cyno FcRn/b2M
Assay: SPR pH 6.0
Remark: another data set of the same source
Procedure: as §2

Kd	Binder
7.9 nM	B10
140 nM	B11
510 nM	B12
67 nM	B13
41 nM	B14

Target: T1, human FcRn/b2M
Assay: SPR pH 6.0
Remark: another data set of the same source

koff	Binder
0.00046 s⁻¹	B1
0.0032 s⁻¹	B2
0.0065 s⁻¹	B3

Target: T1, human FcRn/b2M
Assay: SPR pH 7.4
Remark: another data set of the same source
Procedure: as §2

Kd	Binder
1200 nM	B5
830 nM	B7
1600 nM	B8

Target: T2, cyno FcRn/b2M
Assay: SPR pH 7.4
Remark: another data set of the same source
Procedure: as §2

Kd	Binder
710 nM	B5
480 nM	B7
880 nM	B8

Target: T2, cyno FcRn/b2M
Assay: SPR pH 6.0; pH 6.0; cyno FcRn
Procedure: as §2

Kd	Binder
670 nM	B9

Target: T1, human FcRn/b2M
Assay: SPR pH 7.4
Remark: another data set of the same source
Procedure: as §2

Kd	Binder
450 nM	B10
2500 nM	B13
2600 nM	B14

Target: T2, cyno FcRn/b2M
Assay: SPR pH 7.4
Remark: another data set of the same source
Procedure: as §2

Kd	Binder
290 nM	B10
480 nM	B11
2900 nM	B13
2400 nM	B14

Target: T1, human FcRn/b2M
Assay: SPR; pH 7.4 vs pH 6.0

KD ratio pH 7.4/6.0	Binder
394	B1
70	B2

Target: T2, cyno FcRn/b2M
Assay: SPR; pH 7.4 vs pH 6.0

KD ratio pH 7.4/6.0	Binder
632	B1
104	B2
78	B3
